Where no end group is shown, it is not given here. [ ]: non-standard residue; d: D form. pY = N[C@@H](Cc1ccc(OP(=O)(O)O)cc1)C(=O)O
Each binder was assayed against GAPDH (Oryctolagus cuniculus, UniProt P46406) (assay: fluorescence titration).
Sequence of GAPDH (P46406 whole entry): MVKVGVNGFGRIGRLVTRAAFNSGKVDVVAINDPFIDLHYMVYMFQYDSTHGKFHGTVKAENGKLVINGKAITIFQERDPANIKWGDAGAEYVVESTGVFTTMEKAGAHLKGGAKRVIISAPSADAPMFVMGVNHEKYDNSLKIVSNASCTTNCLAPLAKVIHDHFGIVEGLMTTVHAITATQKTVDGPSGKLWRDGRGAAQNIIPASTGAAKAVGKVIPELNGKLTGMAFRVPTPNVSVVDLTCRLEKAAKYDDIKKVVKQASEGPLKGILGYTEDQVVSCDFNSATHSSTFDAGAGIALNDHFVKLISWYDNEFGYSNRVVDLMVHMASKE

Row | Kd [µM] | Binder
1 | 2.6 | CLDADDAKATFDEEEGRDE[pY]DEVAMPV [AE1 C-terminal peptide AE1C-pY904]
2 | 2.3 | LIFRNVELQCLDADDAKATFDEEEGRDEYDEVAMPV [AE1 C-terminal domain (AE1C-WT) 876-911]
3 | 3.2 | CLDADDAKATFDEEEGRDEYDEVAMPV [AE1 C-terminal peptide AE1C-Y904]

Source: publication PMC3023227 (2010)
